Article PMC8484813, “Structure and substrate specificity determinants of NfnB, a dinitroaniline herbicide–catabolizing nitroreductase from Sphingopyxis sp. strain HMH” (The Journal of Biological Chemistry, 2021)

Assays:
NfnB = target: T1, NfnB (Sphingopyxis granuli, UniProt A0A411G9W7); test: X-ray crystal structure, […] Å; format: binding; conditions: tag-free protein; FMN in pocket at dimer interface
T1 construct: full-length gene in modified pET28b, N-terminal His6 tag with TEV site, E. coli BL21(DE3); tag kept for activity assays, tag-free for crystals
T1 sequence (A0A411G9W7 1-233): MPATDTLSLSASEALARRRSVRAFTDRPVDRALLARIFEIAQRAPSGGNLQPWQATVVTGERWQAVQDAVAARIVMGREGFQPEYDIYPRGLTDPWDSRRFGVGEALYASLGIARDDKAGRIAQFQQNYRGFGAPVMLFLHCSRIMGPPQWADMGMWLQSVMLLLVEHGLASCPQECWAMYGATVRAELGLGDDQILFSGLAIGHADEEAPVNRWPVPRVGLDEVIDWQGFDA

[1] = target: NfnB from Sphingopyxis sp. strain HMH (wildtype) (Sphingopyxis sp. strain HMH); test: SEC; Superdex 200 column, buffer A (50 mM Tris pH 8.0, 100 mM NaCl); elution peak compared with the monomeric molecular weight
purified protein [2] = substrate: CCC(C)Nc1c([N+](=O)[O-])cc(C(C)(C)C)cc1[N+](=O)[O-]; test: purified protein; format: biochemical, Sphingopyxis granuli; conditions: 50 mM Tris pH 7.5, 30 °C
purified protein [3] = substrate: CCC(CC)Nc1c([N+](=O)[O-])cc(C)c(C)c1[N+](=O)[O-]; test: purified protein; format: biochemical, Sphingopyxis granuli; conditions: 50 mM Tris pH 7.5, 30 °C
purified protein [4] = substrate: CCCN(CCC)c1c([N+](=O)[O-])cc(C(C)C)cc1[N+](=O)[O-]; test: purified protein; conditions: 50 mM Tris pH 7.5, 30 °C
purified protein [5] = substrate: CCC(C)Nc1c([N+](=O)[O-])cc(C(C)(C)C)cc1[N+](=O)[O-]; test: purified protein; conditions: pH 7.5; 30.0 °C
purified protein [6] = substrate: CCC(CC)Nc1c([N+](=O)[O-])cc(C)c(C)c1[N+](=O)[O-]; test: purified protein; conditions: pH 7.5; 30.0 °C
purified protein [7] = substrate: NC(=O)C1=CN([C@@H]2O[C@H](COP(=O)(O)OP(=O)(O)OC[C@H]3O[C@@H](n4cnc5c(N)ncnc54)[C@H](OP(=O)(O)O)[C@@H]3O)[C@@H](O)[C@H]2O)C=CC1; test: purified protein; conditions: pH 7.5; 30.0 °C
purified protein [8] = substrate: NC(=O)C1=CN([C@@H]2O[C@H](COP(=O)(O)OP(=O)(O)OC[C@H]3O[C@@H](n4cnc5c(N)ncnc54)[C@H](OP(=O)(O)O)[C@@H]3O)[C@@H](O)[C@H]2O)C=CC1; test: purified protein; format: biochemical, Sphingopyxis granuli; conditions: 12.5 μM butralin, 50 mM Tris pH 7.5, 30 °C, electron donor

Cc1cc2nc3c(=O)[nH]c(=O)nc-3n(C[C@H](O)[C@H](O)[C@H](O)COP(=O)(O)O)c2cc1C [FMN]
X-ray crystal structure, 2.1 Å (NfnB): We determined the crystal structure of NfnB in the presence of coenzyme FMN

NfnB from Sphingopyxis sp. strain HMH (wildtype) (enzyme)
stoichiometry N [1]: 2

B1: NfnB (Sphingopyxis granuli; Y88A) (protein)
chain: MPATDTLSLSASEALARRRSVRAFTDRPVDRALLARIFEIAQRAPSGGNLQPWQATVVTGERWQAVQDAVAARIVMGREGFQPEYDIAPRGLTDPWDSRRFGVGEALYASLGIARDDKAGRIAQFQQNYRGFGAPVMLFLHCSRIMGPPQWADMGMWLQSVMLLLVEHGLASCPQECWAMYGATVRAELGLGDDQILFSGLAIGHADEEAPVNRWPVPRVGLDEVIDWQGFDA
notes: full-length gene in modified pET28b, N-terminal His6 tag with TEV site, E. coli BL21(DE3); tag kept for activity assays, tag-free for crystals
Km (purified protein [2]; 200 μM NADPH): 0.59 (0.077) μM
kcat (purified protein [2]; 200 μM NADPH): 2.1 s⁻¹
Km (purified protein [3]; 200 μM NADPH): 2.9 (0.18) μM
kcat (purified protein [3]; 200 μM NADPH): 2.5 s⁻¹
Km (purified protein [4]; 200 μM NADPH): 0.83 (0.16) μM
kcat (purified protein [4]; 200 μM NADPH): 1.2 s⁻¹

B2: NfnB (Sphingopyxis granuli; Y88F) (protein)
chain: MPATDTLSLSASEALARRRSVRAFTDRPVDRALLARIFEIAQRAPSGGNLQPWQATVVTGERWQAVQDAVAARIVMGREGFQPEYDIFPRGLTDPWDSRRFGVGEALYASLGIARDDKAGRIAQFQQNYRGFGAPVMLFLHCSRIMGPPQWADMGMWLQSVMLLLVEHGLASCPQECWAMYGATVRAELGLGDDQILFSGLAIGHADEEAPVNRWPVPRVGLDEVIDWQGFDA
notes: as for B1
Km (purified protein [2]; 100 μM NADPH): 0.81 (0.12) μM
kcat (purified protein [2]; 100 μM NADPH): 4 s⁻¹
Km (purified protein [3]; 100 μM NADPH): 1.6 (0.28) μM
kcat (purified protein [3]; 100 μM NADPH): 3.6 s⁻¹
Km (purified protein [4]; 100 μM NADPH): 2.7 (0.17) μM
kcat (purified protein [4]; 100 μM NADPH): 0.66 s⁻¹

B3: NfnB (Sphingopyxis granuli) (protein)
chain: MPATDTLSLSASEALARRRSVRAFTDRPVDRALLARIFEIAQRAPSGGNLQPWQATVVTGERWQAVQDAVAARIVMGREGFQPEYDIYPRGLTDPWDSRRFGVGEALYASLGIARDDKAGRIAQFQQNYRGFGAPVMLFLHCSRIMGPPQWADMGMWLQSVMLLLVEHGLASCPQECWAMYGATVRAELGLGDDQILFSGLAIGHADEEAPVNRWPVPRVGLDEVIDWQGFDA
Km (purified protein [5]): 2.4 (0.50) μM
Km (purified protein [6]): 6.8 (1.7) μM
Km (purified protein [7]): 7.3 (1.4) μM

B4: NfnB (Sphingopyxis granuli; R100A) (protein)
chain: MPATDTLSLSASEALARRRSVRAFTDRPVDRALLARIFEIAQRAPSGGNLQPWQATVVTGERWQAVQDAVAARIVMGREGFQPEYDIYPRGLTDPWDSRAFGVGEALYASLGIARDDKAGRIAQFQQNYRGFGAPVMLFLHCSRIMGPPQWADMGMWLQSVMLLLVEHGLASCPQECWAMYGATVRAELGLGDDQILFSGLAIGHADEEAPVNRWPVPRVGLDEVIDWQGFDA
notes: as for B1
Km (purified protein [8]): 58 (4.5) μM
kcat (purified protein [8]): 3.9 s⁻¹

B5: NfnB (Sphingopyxis granuli; R100M) (protein)
chain: MPATDTLSLSASEALARRRSVRAFTDRPVDRALLARIFEIAQRAPSGGNLQPWQATVVTGERWQAVQDAVAARIVMGREGFQPEYDIYPRGLTDPWDSRMFGVGEALYASLGIARDDKAGRIAQFQQNYRGFGAPVMLFLHCSRIMGPPQWADMGMWLQSVMLLLVEHGLASCPQECWAMYGATVRAELGLGDDQILFSGLAIGHADEEAPVNRWPVPRVGLDEVIDWQGFDA
notes: as for B1
Km (purified protein [8]): 95 (20) μM
kcat (purified protein [8]): 4.9 s⁻¹
